Laboratory results published in the supplement of paper PMC10567573.

B1: MLL5 (parent)
chain: EQIAERKRKMVSWEASSLGLVTAA

Variants of: B1
Assay: protein stability index of a GFP-peptide fusion (GPS, HEK-293T) (PSI 1-6); higher = more stable
Conditions: c terminus: a fixed tail appended
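Further: lentivirally expressed fusions sorted by FACS into six bins by GFP to DsRed ratio, PSI derived from sequencing read proportions per bin multiplied by bin number.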

Q: Which protein stability index does the source give for EQIAERKRKMVSWEWSSLGLVTAA here?
A: The protein stability index was 1.84.

Q: For EQIAERKRKMVSWEQSSLGLVTAA, which protein stability index is on record?
A: The protein stability index was 2.93.

Q: Which protein stability index does the source give for EQIAERKRKMVSWEESSLGLVTAA here?
A: The protein stability index was 3.

Q: With EQIAERKRKMVSWEFSSLGLVTAA as the variant, how does the protein stability index read?
A: The protein stability index was 2.08.

Q: For EQIAERKRKMVSWECSSLGLVTAA, which protein stability index is on record?
A: Its protein stability index is 2.28.

Q: Which protein stability index does the source give for EQIAERKRKMVSWEISSLGLVTAA here?
A: Its protein stability index is 2.56.

Q: With EQIAERKRKMVSWERSSLGLVTAA as the variant, how does the protein stability index read?
A: The protein stability index was 3.98.

Q: Which protein stability index does the source give for EQIAERKRKMVSWEASSNGLVTAA here?
A: The protein stability index was 3.52.

Q: With EQIAERKRKMVSWEASSTGLVTAA as the variant, how does the protein stability index read?
A: The protein stability index was 3.5.

Q: For EQIAERKRKMVSWEASSHGLVTAA, which protein stability index is on record?
A: Its protein stability index is 2.97.

Q: For EQIAERKRKMVSWEASSQGLVTAA, which protein stability index is on record?
A: Its protein stability index is 3.72.

Q: With EQIAERKRKMVSWEASSFGLVTAA as the variant, how does the protein stability index read?
A: The protein stability index was 2.43.

Q: For EQIAERKRKMVSWEASSCGLVTAA, which protein stability index is on record?
A: Its protein stability index is 2.97.

Q: With EQIAERKRKMVSWEASSAGLVTAA as the variant, how does the protein stability index read?
A: Its protein stability index is 3.31.

Q: Which protein stability index does the source give for EQIAERKRKMVSWEASSYGLVTAA here?
A: The protein stability index was 2.77.

Q: Which protein stability index does the source give for EQIAERKRKMVSWEASSDGLVTAA here?
A: Its protein stability index is 4.24.

Q: Which protein stability index does the source give for RQIAERKRKMVSWEASSLGLVTAA here?
A: The protein stability index was 2.77.

Q: For FQIAERKRKMVSWEASSLGLVTAA, which protein stability index is on record?
A: The protein stability index was 1.42.

Q: For WQIAERKRKMVSWEASSLGLVTAA, which protein stability index is on record?
A: The protein stability index was 1.69.

Q: With YQIAERKRKMVSWEASSLGLVTAA as the variant, how does the protein stability index read?
A: Its protein stability index is 2.41.

Q: For QQIAERKRKMVSWEASSLGLVTAA, which protein stability index is on record?
A: Its protein stability index is 3.2.

Q: For LQIAERKRKMVSWEASSLGLVTAA, which protein stability index is on record?
A: Its protein stability index is 2.53.

Q: With CQIAERKRKMVSWEASSLGLVTAA as the variant, how does the protein stability index read?
A: Its protein stability index is 1.44.

Q: With GQIAERKRKMVSWEASSLGLVTAA as the variant, how does the protein stability index read?
A: Its protein stability index is 3.27.

Q: Which protein stability index does the source give for EQIAERKRKMYSWEASSLGLVTAA here?
A: The protein stability index was 3.14.

Q: Which protein stability index does the source give for EQIAERKRKMLSWEASSLGLVTAA here?
A: Its protein stability index is 2.63.

Q: Which protein stability index does the source give for EQIAERKRKMSSWEASSLGLVTAA here?
A: Its protein stability index is 2.99.

Q: For EQIAERKRKMESWEASSLGLVTAA, which protein stability index is on record?
A: Its protein stability index is 4.18.

Q: With EQIAERKRKMTSWEASSLGLVTAA as the variant, how does the protein stability index read?
A: Its protein stability index is 2.87.

Q: Which protein stability index does the source give for EQIAERKRKMFSWEASSLGLVTAA here?
A: Its protein stability index is 2.63.

Q: For EQIAERYRKMVSWEASSLGLVTAA, which protein stability index is on record?
A: The protein stability index was 2.29.

Q: For EQIAERGRKMVSWEASSLGLVTAA, which protein stability index is on record?
A: The protein stability index was 2.93.

Q: For EQIAERHRKMVSWEASSLGLVTAA, which protein stability index is on record?
A: The protein stability index was 3.36.

Q: With EQIAERKRKMVSWEASWLGLVTAA as the variant, how does the protein stability index read?
A: Its protein stability index is 1.76.

Q: With EQIAERKRKMVSWEASMLGLVTAA as the variant, how does the protein stability index read?
A: Its protein stability index is 1.54.

Q: For EQIAERKRKMVSWEASDLGLVTAA, which protein stability index is on record?
A: Its protein stability index is 2.98.

Q: For EQIAERKRKMVSWEASHLGLVTAA, which protein stability index is on record?
A: The protein stability index was 2.7.

Q: Which protein stability index does the source give for EQIAERKRKMVSWEASYLGLVTAA here?
A: Its protein stability index is 2.43.

Q: For EQIAERKRKMVSWEASFLGLVTAA, which protein stability index is on record?
A: Its protein stability index is 1.37.

Q: Which protein stability index does the source give for EQIAERKRKMVSWEASCLGLVTAA here?
A: The protein stability index was 1.44.

Q: With EQIAERKRKMVSWEASPLGLVTAA as the variant, how does the protein stability index read?
A: Its protein stability index is 3.46.

Q: With EQIAERKRKMVSWEASALGLVTAA as the variant, how does the protein stability index read?
A: Its protein stability index is 2.77.

Q: For EQIAERKRKMVSWEASGLGLVTAA, which protein stability index is on record?
A: The protein stability index was 3.12.

Q: With EQIAERKNKMVSWEASSLGLVTAA as the variant, how does the protein stability index read?
A: The protein stability index was 2.82.

Q: With EQIAERKCKMVSWEASSLGLVTAA as the variant, how does the protein stability index read?
A: Its protein stability index is 2.76.

Q: Which protein stability index does the source give for EQIAERKVKMVSWEASSLGLVTAA here?
A: The protein stability index was 2.65.

Q: Which protein stability index does the source give for EQIAERKIKMVSWEASSLGLVTAA here?
A: The protein stability index was 2.66.

Q: Which protein stability index does the source give for EQIAERKLKMVSWEASSLGLVTAA here?
A: Its protein stability index is 2.79.

Q: With EQIAERKHKMVSWEASSLGLVTAA as the variant, how does the protein stability index read?
A: The protein stability index was 3.64.

Q: Which protein stability index does the source give for EQIAERKEKMVSWEASSLGLVTAA here?
A: The protein stability index was 3.98.

Q: For EQIAERKWKMVSWEASSLGLVTAA, which protein stability index is on record?
A: Its protein stability index is 2.72.

Q: With EQIAERKFKMVSWEASSLGLVTAA as the variant, how does the protein stability index read?
A: The protein stability index was 2.01.

Q: With EQIAERKYKMVSWEASSLGLVTAA as the variant, how does the protein stability index read?
A: Its protein stability index is 2.86.

Q: Which protein stability index does the source give for EQIAERKSKMVSWEASSLGLVTAA here?
A: Its protein stability index is 2.97.

Q: With EQIAERKAKMVSWEASSLGLVTAA as the variant, how does the protein stability index read?
A: The protein stability index was 3.81.

Q: With EQIYERKRKMVSWEASSLGLVTAA as the variant, how does the protein stability index read?
A: Its protein stability index is 2.8.

Q: With EQIIERKRKMVSWEASSLGLVTAA as the variant, how does the protein stability index read?
A: The protein stability index was 2.38.

Q: Which protein stability index does the source give for EQIKERKRKMVSWEASSLGLVTAA here?
A: Its protein stability index is 3.36.

Q: For EQIVERKRKMVSWEASSLGLVTAA, which protein stability index is on record?
A: Its protein stability index is 2.56.

Q: For EQISERKRKMVSWEASSLGLVTAA, which protein stability index is on record?
A: Its protein stability index is 3.34.

Q: For EQIADRKRKMVSWEASSLGLVTAA, which protein stability index is on record?
A: The protein stability index was 3.49.

Q: For EQIASRKRKMVSWEASSLGLVTAA, which protein stability index is on record?
A: The protein stability index was 2.13.

Q: Which protein stability index does the source give for EQIAVRKRKMVSWEASSLGLVTAA here?
A: Its protein stability index is 2.44.

Q: With EQIAIRKRKMVSWEASSLGLVTAA as the variant, how does the protein stability index read?
A: The protein stability index was 2.33.

Q: Which protein stability index does the source give for EQIAGRKRKMVSWEASSLGLVTAA here?
A: The protein stability index was 2.95.

Q: With EQIAPRKRKMVSWEASSLGLVTAA as the variant, how does the protein stability index read?
A: Its protein stability index is 3.01.

Q: For EQIAARKRKMVSWEASSLGLVTAA, which protein stability index is on record?
A: The protein stability index was 2.25.

Q: With EQIAWRKRKMVSWEASSLGLVTAA as the variant, how does the protein stability index read?
A: Its protein stability index is 1.8.

Q: With EQIACRKRKMVSWEASSLGLVTAA as the variant, how does the protein stability index read?
A: The protein stability index was 1.87.

Q: Which protein stability index does the source give for EQHAERKRKMVSWEASSLGLVTAA here?
A: Its protein stability index is 3.7.

Q: Which protein stability index does the source give for EQNAERKRKMVSWEASSLGLVTAA here?
A: The protein stability index was 3.64.

Q: With EQAAERKRKMVSWEASSLGLVTAA as the variant, how does the protein stability index read?
A: The protein stability index was 3.18.

Q: Which protein stability index does the source give for EQPAERKRKMVSWEASSLGLVTAA here?
A: The protein stability index was 3.56.

Q: With EQQAERKRKMVSWEASSLGLVTAA as the variant, how does the protein stability index read?
A: The protein stability index was 3.09.

Q: For EQGAERKRKMVSWEASSLGLVTAA, which protein stability index is on record?
A: Its protein stability index is 3.29.

Q: Which protein stability index does the source give for EQVAERKRKMVSWEASSLGLVTAA here?
A: The protein stability index was 3.63.

Q: With EQDAERKRKMVSWEASSLGLVTAA as the variant, how does the protein stability index read?
A: The protein stability index was 4.19.

Q: Which protein stability index does the source give for EVIAERKRKMVSWEASSLGLVTAA here?
A: Its protein stability index is 2.79.

Q: With EPIAERKRKMVSWEASSLGLVTAA as the variant, how does the protein stability index read?
A: The protein stability index was 2.84.

Q: Which protein stability index does the source give for EFIAERKRKMVSWEASSLGLVTAA here?
A: The protein stability index was 2.58.

Q: Which protein stability index does the source give for EHIAERKRKMVSWEASSLGLVTAA here?
A: The protein stability index was 2.68.

Q: With EKIAERKRKMVSWEASSLGLVTAA as the variant, how does the protein stability index read?
A: Its protein stability index is 3.05.

Q: For EAIAERKRKMVSWEASSLGLVTAA, which protein stability index is on record?
A: Its protein stability index is 2.75.

Q: With EQIAEGKRKMVSWEASSLGLVTAA as the variant, how does the protein stability index read?
A: The protein stability index was 3.38.

Q: With EQIAECKRKMVSWEASSLGLVTAA as the variant, how does the protein stability index read?
A: The protein stability index was 3.24.

Q: Which protein stability index does the source give for EQIAEDKRKMVSWEASSLGLVTAA here?
A: The protein stability index was 3.98.

Q: Which protein stability index does the source give for EQIAEQKRKMVSWEASSLGLVTAA here?
A: The protein stability index was 2.76.

Q: For EQIAEFKRKMVSWEASSLGLVTAA, which protein stability index is on record?
A: Its protein stability index is 2.67.

Q: With EQIAEEKRKMVSWEASSLGLVTAA as the variant, how does the protein stability index read?
A: The protein stability index was 3.56.

Q: With EQIAEHKRKMVSWEASSLGLVTAA as the variant, how does the protein stability index read?
A: The protein stability index was 2.98.

Q: With EQIAEIKRKMVSWEASSLGLVTAA as the variant, how does the protein stability index read?
A: Its protein stability index is 1.65.

Q: For EQIAEKKRKMVSWEASSLGLVTAA, which protein stability index is on record?
A: Its protein stability index is 3.18.

Q: Which protein stability index does the source give for EQIAEMKRKMVSWEASSLGLVTAA here?
A: Its protein stability index is 2.88.

Q: For EQIAERKRKMVSWEASSLALVTAA, which protein stability index is on record?
A: Its protein stability index is 2.1.
